Reference: US7063946B2, “Methods, reagents, kits and apparatus for protein function analysis” (Meso Scale Technologies, LLC., priority 2001, dated 2006)
Changes are numbered by the printed parent chain. Names and notes keep the numbering of the source.

B1: RGS4: Regulator of G-protein signaling 4, in vitro translated from plasmid pcDNA3-RGS4 (protein, UniProt P49798 1-205, looked up)
Regulator of G-protein …: MCKGLAGLPASCLRSAKDMKHRLGFLLQKSDSCEHNSSHNKKDKVVICQRVSQEEVKKWAESLENLISHECGLAAFKAFLKSEYSEENIDFWISCEEYKKIKSPSKLSPKAKKIYNEFISVQATKEVNLDSCTREETSRNMLEPTITCFDEAQKKIFNLMEKDSYRRFLKSRFYLDLVNPSSCGAEKQKGAKSSADCASLVPQCA
B2: 3914731: IMAGE clone protein: RGS4 (protein, UniProt P49798 1-205, looked up)
Regulator of G-protein …: B1 Regulator of G-protein …
B3: 3912628: IMAGE clone protein: RGS4 (protein, UniProt P49798 1-205, looked up)
Regulator of G-protein …: B1 Regulator of G-protein …
B4: RGS4-C2V: RGS4C2V mutant, in vitro translated from pcDNA3-RGS4-C2V (protein, UniProt P49798 1-205, looked up, variant C2V)
Regulator of G-protein …: B1 Regulator of G-protein … with C2V
B5: 3920860: IMAGE clone protein: RGS4 (protein, UniProt P49798 1-205, looked up)
Regulator of G-protein …: B1 Regulator of G-protein …

Tests used:
Type in all cases: biochemical, rabbit
[1] = test system: ubiquitin-proteasome system (N-end rule pathway) in reticulocyte lysate; test: ECL assay for ubiquitylation in reticulocyte lysate using Sulfo-TAG-labeled Ub, streptavidin-coated IPR plate; settings: for IPR readings, Experiment 1 / IPR readings, Experiment 2: Sulfo-TAG-labeled Ub, reticulocyte lysate +
Experimental: (§1) Binding Buffer 2 (BB2) refers to 25 mM Tris-HCl buffer pH 7.4 containing 100 mM NaCl, 0.05 mM Na3VO4, 0.004% TritonX-100, 2 mM DTT and protease inhibitors (protease inhibitor cocktail, EDTA free, Roche Applied Science). Proteins were produced by coupled transcription/translation using TnT reaction mixes (Promega Corp, WI). The TNT Quick coupled transcription-translation system (Promega) contains rabbit reticulocyte lysate pre-mixed with most of the reaction components necessary to carry out transcription and translation in vitro (TNT mix), including all the amino acids except methionine. Unless otherwise noted, biotin-labeled in vitro translated proteins were produced in reaction mixtures that contained 8–30 μg/ml of a selected plasmid encoding protein of interest, 5 μl of TNT T7 Quick reticulocyte lysate mix (Promega Corp, WI) or TnT SP6 Quick Coupled Transcription/Translation System (Promega Corp, WI), 20 μM methionine, 50 μM MG-132 (Calbiochem, proteasome inhibitor to inhibit degradation of ubiquitylated proteins by proteasome) and 20 μg/ml biotinylated Lys-tRNA (transcend tRNA, Promega). The reactions were allowed to proceed for 20–90 min at 30° C. The reactions were stopped by the addition of BB1 supplemented with 20 mM AMP-PNP (Sigma, a non-hydrolyzable ATP analog), 20 mM N-ethylmaleimide (Sigma, an irreversible inhibitor of deubiquitylating enzymes) or, alternatively, by the addition of BB2. BB1 was used in screens involving the ubiquitination pathway. BB2 was used for other assay formats. The produced proteins were used in the assays of interest with or without further purification.
RGS4 was produced by transcription/translation of 30 μg/ml plasmid pcDNA3-RGS4 (Davydov and Varshavsky, 2000, J. Biol. Chem., 275:22931–22941) under the conditions described in Materials and Methods except for the addition of 1 μM Ub aldehyde (Calbiochem, to inhibit deubiquitylating enzymes) and 5 μM Sulfo-Tag-labeled Ub (having an average of 4.1 labels per Ub molecule). Then 3 μl of the reaction was mixed with 50 μl of BB1 in a 96-well streptavidin-coated non-plasma treated IPR (NPT IPR) plate.

[2] = test system: N-end rule pathway ubiquitylation in reticulocyte lysate; test: ECL ubiquitylation assay using Sulfo-TAG-labeled streptavidin and IPR plate coated with FK2 antibody; settings: for IPR readings, Experiment 1 / IPR readings, Experiment 2: no dipeptide inhibitor
Experimental: as §1
Transcription-translation reaction mixtures were prepared as described in the Example 1 except that no labeled ubiquitin was added. Some reactions also contained 1 mM dipeptide inhibitor of the N-end rule pathway (either Arg-β-Ala, or Trp-Ala) together with 50 μM bestatin as indicated (Table 2). The reaction was allowed to proceed for 20 min at 30° C. Then 1 μl of the reaction was mixed with 50 μl of BB1 supplemented with 20 mM AMP-PNP, 20 mM N-ethylmaleimide, and 2 μg/ml Sulfo-TAG-labeled streptavidin in a well of an IPR plate coated with an anti-ubiquitin antibody (FK2 antibody, Affiniti). […] In a typical assay the presence of RGS4-encoding plasmid produced a 30–100 fold higher ECL signal compared to the empty vector (FIG. 2, Table 2). This signal was reduced 3–4 fold in the presence of Arg-β-Ala (a type 1 inhibitor of the N-end rule pathway), but not in the presence of Trp-Ala (a type 2 inhibitor of the N-end rule pathway) in agreement with the previous report that RGS4 is a type 1 N-end rule substrate in reticulocyte lysates (Davydov and Varshavsky, 2000, J. Biol. Chem., 275:22931–22941). In the same assay RGS4 produced 3–5 fold higher ECL signal compared to RGS4C2V, when the same amounts of the corresponding plasmids were added to the reaction mixtures (Table 2).

[3] = test system: ubiquitylation in reticulocyte lysate; test: ECL ubiquitylation assay using Sulfo-TAG-labeled FK2 antibody and streptavidin-coated IPR plate
Experimental: The protein was prepared as described Example 2 and mixed with 60 μg/ml Sulfo-TAG-labeled FK2 antibody (Affiniti) having 5.6 labels per antibody, in a streptavidin-coated NPT IPR plate.

[4] = test system: ubiquitylation in reticulocyte lysate; test: Ubiquitylation assay using Sulfo-TAG labeled Ub, streptavidin magnetic beads, M-8 Analyzer
Experimental: Then 10 μl of the reaction product was mixed with 50 μl of BB1 supplemented with 20 mM AMP-PNP, 20 mM N-ethylmaleimide, and 20 μg streptavidin coated magnetic beads (Streptavidin Dyna-Beads, Dynal) in a 96-well plate. […] Thereafter the volume in each well was adjusted to 200 μl with binding buffer, and ECL signals were measured in M-8 Analyzer (IGEN International, Inc., Gaithersburg, Md.).

[5] = test system: ubiquitylation in reticulocyte lysate; test: Ubiquitylation assay using Sulfo-TAG labeled FK2 antibody, streptavidin magnetic beads, M-8 Analyzer
Experimental: Transcription-translation reaction mixtures containing pcDNA3-RGS4 or pcDNA3-RGS4-C2V plazmids(Davydov and Varshavsky, 2000, J. Biol. Chem., 275:22931–22941) were prepared and used as described in the Example 2. The reaction products were mixed with 3 μg Sulfo-TAG labeled FK2 antibody in a 96-well plate in a binding buffer. Sulfo-TAG labeled FK2 antibody had 5.6 Sulfo-TAG labels per antibody molecule. […] Then 30 μl of BB1 supplemented with 20 mM AMP-PNP, 20 mM N-ethylmaleimide and containing 20 μg dynal beads streptavidin (Dynal) were added to each well, and the plate was left on the shaker at room temperature for another hour to allow for binding of biotinylated proteins to dynal beads. Thereafter the volume in each well was adjusted to 200 μl with BB1, and ECL signals were measured in M-8 Analyzer (IGEN International, Inc., Gaithersburg Md.).

[6] = test system: N-end rule pathway ubiquitylation in reticulocyte lysates; test: ECL ubiquitylation assay of EST clone proteins, FK2 antibody coated IPR plate
Experimental: The following EST clones in bacteria were obtained: IMAGE ID #, 3446518, 3446518, 3446518, 3914731 (RGS4), 3914731 (RGS4), 3914731 (RGS4) (Incyte, Palo Alto). Bacteria containing EST clones were grown in 2 ml LB with 50 μg/ml Amp, and DNA was isolated using QIAprep Spin Miniprep Kit (Qiagen). DNA yield was 5–20 μg.
Proteins were prepared from the EST clones in transcription-translation reaction mixtures (total volume 12.5 uL) as described in the Materials and Methods except for the addition of 1 μM Ub aldehyde (Calbiochem). Then 1 μl of the reaction product was mixed with 50 μl of BB1 supplemented with 20 mM AMP-PNP, 20 mM N-ethylmaleimide and 2 μg/ml Sulfo-TAG-labeled streptavidin in to each well of an IPR plate coated with FK2 antibody.
As previously reported, RGS4 is a substrate of the N-end rule-dependent ubiquitylation in reticulocyte lysates (Davydov and Varshavsky, 2000, J. Biol. Chem., 275:22931–22941). To determine if the protein produced from clone 3446518 was similarly ubiquitylated through the N-end rule pathway, the ECL ubiquitylation assay was performed in the presence of dipeptide inhibitors Arg-β-Ala (type 1 inhibitor of the N-end rule pathway), or Trp-Ala (type 2 inhibitor of the same pathway). As was shown on FIG. 2, the RGS4 signal was reduced 3–4 fold in the presence of Arg-β-Ala (a type 1 inhibitor of the N-end rule pathway), but not in the presence of Trp-Ala (a type 2 inhibitor of the N-end rule pathway) in agreement with the previous report that RGS4 is a type 1 N-end rule substrate in reticulocyte lysates (Davydov and Varshavsky, 2000, J. Biol. Chem., 275:22931–22941). In contrast, the dipeptides had little effect on the assay signal from clone 3446518 (FIG. 2). Thus, a different pathway of the ubiquitin system mediates ubiquitylation of the protein produced from clone 3446518.

[7] = test system: ubiquitylation in reticulocyte lysates; test: 96-well screen of EST clones: ubiquitylation assay, FK2 antibody coated plate
Experimental: Transcription-translation reactions were assembled in a 96-well plate as described in Materials and Method in a total volume of 19 μl. The amounts of DNA in each reaction varied depending on DNA yields at purification stage, while the four positive control wells contained reactions with 20 μg/ml plasmid DNA. The reactions were incubated at 30° C. for 40 min.
After incubation, 1 μl of the TNT reaction was mixed with 50 μl of BB1 in an IPR plate coated with FK2 antibody (750 ng antibody per well) (see Materials and Methods).

Row | Molecule | IPR readings, Experiment 1 [1] | IPR readings, Experiment 2 [1] | IPR readings, Experiment 1 [2] | IPR readings, Experiment 2 [2] | M-8 readings, Experiment 1 [4] | M-8 readings, Experiment 2 [4] | M-8 readings [5] | signal in ubiquitylation assay (in words) [6] | signal in ubiquylation screen (FIG. 2, in words) [7] | other results
1 | B1 | 29294 | 27303 | 23441 | 23137 | 87339 | 71463 | 187328 |  |  | fold higher ECL signal compared to RGS4C2V ([1]; same amounts of plasmids): 3–4 fold; fold higher ECL signal compared to the empty vector ([1]; typical experiment): 5–15 fold; fold higher ECL signal compared to RGS4C2V ([2]; same amounts of plasmids): 3–5 fold; fold higher ECL signal compared to the empty vector ([2]; typical assay): 30–100 fold; IPR readings ([3]; reticulocyte lysate +): 85993; fold higher ECL signal compared to the empty vector ([3]; typical assay): 15–30 fold
2 | B2 |  |  |  |  |  |  |  | strong specific signal | strong specific signal | ECL readings, Experiment 1 ([6]; no dipeptide inhibitor): 41670; ECL readings, Experiment 2 ([6]; no dipeptide inhibitor): 43729; ECL readings, Experiment 3 ([6]; no dipeptide inhibitor): 41806
3 | B3 |  |  |  |  |  |  |  | strong specific signal | strong specific signal | 
4 | B4 | 7744 | 7614 | 5567 | 5362 | 30201 | 26712 | 14689 |  |  | 
5 | B5 |  |  |  |  |  |  |  | strong specific signal | strong specific signal | 
